Experimental data taken from the supplement of paper PMC9112550, “Optimization of the antimicrobial peptide Bac7 by deep mutational scanning” (BMC Biology, 2022).

Each sequence was assayed on Escherichia coli TOP10 (assay: shrunken log2 fold change of peptide-encoding DNA abundance (4.5 h post-induction vs induction); higher = less antimicrobial activity (less host growth inhibition)). Settings: time post-induction: 4.5 h; library: site-saturation at positions 5, 18, 19, 20.
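Further: peptides expressed intracellularly from a pBAD plasmid library in pooled LB shake-flask culture, induced with 0.3% L-arabinose, DNA abundance read by NGS, three biological replicates, DESeq2 with apeglm shrinkage.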

First: RRIRRRPPRLPRPRPRPIQDPRP
Second: RRIRSRPPRLPRPRPRPCLSPRP
The “shrunken log2 fold change” value of the first is higher: 2.65 for the first, -0.000866 for the second.

Going from RRIRSRPPRLPRPRPRPPHPPRP to RRIRSRPPRLPRPRPRPEDYPRP, the “shrunken log2 fold change” value falls from 0.325 to -0.00134.

Going from RRIRGRPPRLPRPRPRPDGAPRP to RRIRQRPPRLPRPRPRPVAKPRP, the “shrunken log2 fold change” value falls from 1.03 to 0.2.

First: RRIRERPPRLPRPRPRPNATPRP
Second: RRIRPRPPRLPRPRPRPLGRPRP
The “shrunken log2 fold change” value of the first is higher: 0.287 for the first, 0.0841 for the second.

Going from RRIRQRPPRLPRPRPRPGQWPRP to RRIRERPPRLPRPRPRPLVGPRP, the “shrunken log2 fold change” value falls from 0.00718 to -0.198.

Compared with RRIRVRPPRLPRPRPRPIYKPRP, RRIRDRPPRLPRPRPRPTSRPRP is higher in “shrunken log2 fold change” value: -0.535 for the first, 0.208 for the second.

RRIRCRPPRLPRPRPRPVCKPRP and RRIRPRPPRLPRPRPRPMNDPRP are within 0.2 log units of each other in “shrunken log2 fold change” value: -0.238 for the first, -0.329 for the second.

Compared with RRIRGRPPRLPRPRPRPKMRPRP, RRIRVRPPRLPRPRPRPYTHPRP is lower in “shrunken log2 fold change” value: 1.33 for the first, -0.912 for the second.

RRIRERPPRLPRPRPRPMRIPRP and RRIRGRPPRLPRPRPRPYEVPRP are within 0.2 log units of each other in “shrunken log2 fold change” value: 0.257 for the first, 0.0996 for the second.

Compared with RRIRFRPPRLPRPRPRPREYPRP, RRIRTRPPRLPRPRPRPQCFPRP is higher in “shrunken log2 fold change” value: -0.415 for the first, 0.0187 for the second.

Compared with RRIRMRPPRLPRPRPRPDMKPRP, RRIRNRPPRLPRPRPRPSHFPRP is lower in “shrunken log2 fold change” value: 0.182 for the first, -0.647 for the second.

First: RRIRQRPPRLPRPRPRPDLMPRP
Second: RRIRQRPPRLPRPRPRPLGTPRP
The “shrunken log2 fold change” value of the first is lower: -0.08 for the first, 0.139 for the second.

Going from RRIRERPPRLPRPRPRPSYEPRP to RRIRTRPPRLPRPRPRPTYQPRP, the “shrunken log2 fold change” value rises from -0.499 to -0.206.

First: RRIRNRPPRLPRPRPRPTRFPRP
Second: RRIRYRPPRLPRPRPRPSVNPRP
The “shrunken log2 fold change” value of the first is higher: 0.3 for the first, -0.177 for the second.

RRIRQRPPRLPRPRPRPHMFPRP and RRIRLRPPRLPRPRPRPLHMPRP are within 0.2 log units of each other in “shrunken log2 fold change” value: 0.0177 for the first, -0.112 for the second.

Compared with RRIRKRPPRLPRPRPRPWCEPRP, RRIRGRPPRLPRPRPRPYDKPRP is lower in “shrunken log2 fold change” value: 0.157 for the first, -0.147 for the second.

Compared with RRIRGRPPRLPRPRPRPIRKPRP, RRIRSRPPRLPRPRPRPVDSPRP is lower in “shrunken log2 fold change” value: 0.124 for the first, -0.0776 for the second.

RRIRLRPPRLPRPRPRPPYMPRP and RRIRGRPPRLPRPRPRPDYFPRP are within 0.2 log units of each other in “shrunken log2 fold change” value: -0.205 for the first, -0.0114 for the second.

Going from RRIRNRPPRLPRPRPRPWYMPRP to RRIRRRPPRLPRPRPRPVGDPRP, the “shrunken log2 fold change” value rises from -0.911 to -0.0486.

Going from RRIRPRPPRLPRPRPRPGCWPRP to RRIRKRPPRLPRPRPRPNYMPRP, the “shrunken log2 fold change” value falls from 0.621 to -0.117.

RRIRDRPPRLPRPRPRPRSWPRP and RRIRNRPPRLPRPRPRPMGPPRP are within 0.2 log units of each other in “shrunken log2 fold change” value: 0.131 for the first, 0.0762 for the second.

Going from RRIRPRPPRLPRPRPRPILYPRP to RRIRNRPPRLPRPRPRPGYLPRP, the “shrunken log2 fold change” value rises from -0.299 to 0.114.

Going from RRIRQRPPRLPRPRPRPLAWPRP to RRIRSRPPRLPRPRPRPPTPPRP, the “shrunken log2 fold change” value rises from 0.15 to 0.63.

First: RRIRARPPRLPRPRPRPQYSPRP
Second: RRIRTRPPRLPRPRPRPWCTPRP
The “shrunken log2 fold change” value of the first is higher: -0.0321 for the first, -0.275 for the second.

Going from RRIRERPPRLPRPRPRPHENPRP to RRIRRRPPRLPRPRPRPWIGPRP, the “shrunken log2 fold change” value rises from -0.365 to 0.0943.
